Usually Kd stands for the equilibrium constant for the complex coming apart. Low values mean a tighter complex, high ones a looser complex.

Test [1] has as its target Human CD16 (V158 allotype), soluble (human) (UniProt P08637). The experiment in a line: SPR (BIAcore 3000), Fc amine-coupled to CM5 chip, soluble CD16 V158 at 1 nM-1.6 µM, steady-state isotherm fit, 25 C. Background: SPR reads the build-up and loss of mass on a sensor chip optically.
Test [2] addresses T1, Human FcγRIIA (human, UniProt P12318 34-217, limits assumed).
T1 construct: The construct is not described
T1 sequence (looked up): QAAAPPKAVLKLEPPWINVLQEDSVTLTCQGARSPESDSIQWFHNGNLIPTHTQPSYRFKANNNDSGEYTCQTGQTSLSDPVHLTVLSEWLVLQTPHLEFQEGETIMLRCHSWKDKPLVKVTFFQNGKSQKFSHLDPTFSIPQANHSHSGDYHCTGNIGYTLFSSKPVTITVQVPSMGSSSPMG
The experiment in a line: SPR (BIAcore 3000), immobilised Fc/Mut2, human FcγRIIA injected at 8 µM.

The target of test [3] is T1, Human FcγRIIA. The experiment in a line: SPR (BIAcore 3000), immobilised Fc/Mut3, human FcγRIIA injected at 8 µM.
The target of the next test is T2, Human FcγRIIB (human, UniProt P31994 43-217, limits assumed).
T2 construct: The construct is not described
T2 sequence (looked up): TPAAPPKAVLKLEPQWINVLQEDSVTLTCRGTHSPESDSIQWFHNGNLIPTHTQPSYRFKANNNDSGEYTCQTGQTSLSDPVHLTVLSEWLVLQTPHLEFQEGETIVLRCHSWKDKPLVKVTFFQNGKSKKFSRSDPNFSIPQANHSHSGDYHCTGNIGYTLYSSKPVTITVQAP
The test is described as follows: SPR (BIAcore 3000), immobilised Fc/Mut3, human FcγRIIB injected at 8 µM.

Sequence of Human CD16 (V158 allotype), soluble (human) (P08637 17-208 F176V): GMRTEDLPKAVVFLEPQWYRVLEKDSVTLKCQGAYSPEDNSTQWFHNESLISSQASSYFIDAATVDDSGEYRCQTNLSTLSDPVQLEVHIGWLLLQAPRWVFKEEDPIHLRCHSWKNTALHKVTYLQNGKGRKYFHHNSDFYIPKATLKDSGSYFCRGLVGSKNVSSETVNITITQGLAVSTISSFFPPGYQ

As for “Unmutated human Fc (from UniProt P0DOX5 225-449)”, the Kd in test [1] stood at 157 nM.

B1: Fc/Mut2 (other)
chain: THTCPPCPAPELLGGPSVFLFPPKPKDTLMISRTPEVTCVVVDVSHEDPEVKFNWYVDGVEVHNAKTKPRENSTYRVVSVLTVLHQDWLNGKEYKCKVSNKALPAPIEKTISKAKGQPREPQVYTLPPSREEMTKNQVSLTCLVKGFYPSDIAVEWESNGQPENNYKTTPPVLDSDGSFFLYSKLTVDKSRWQQGNVFSCSVMHEALHNHYTQKSLSLSPGK
notes: It was made in the same expression construct as the unmutated human Fc and expressed in HEK 293 cells
For B1, the binding result with Human FcγRIIA [2] is “no binding (tested: 8 µM)”.

B2: Fc/Mut3 (other)
chain: THTCPPCPAPELLGGPSVFLFPPKPKDTLMISRTPEVTCVVVDVSHEDPEVKFNWYVDGVEVHNAKTKPRENSTVVSVLTVLHQDWLNGKEYKCKVSNKALPAPIEKTISKAKGQPREPQVYTLPPSREEMTKNQVSLTCLVKGFYPSDIAVEWESNGQPENNYKTTPPVLDSDGSFFLYSKLTVDKSRWQQGNVFSCSVMHEALHNHYTQKSLSLSPGK
notes: as for B1
As to B2, the binding result in the test with Human FcγRIIA [3] and with Human FcγRIIB was “no binding (tested: 8 µM)” each time.

The values above are taken from patent US20110091992A1 (AstraZeneca / MedImmune, published 2011).
